Data: the supplement of paper PMC11246515
± gives the standard deviation of the averaged measurements.

Test: total protein half-life in vivo (active degradation + dilution); higher = more stable protein
[1] = E. coli NCM3722 delta-clpP delta-lon delta-hslV, growth: N-lim chemostat, doubling time 6 h
[2] = E. coli NCM3722 delta-clpP, growth: N-lim chemostat, doubling time 6 h
[3] = E. coli NCM3722 delta-hslV, growth: N-lim chemostat, doubling time 6 h
[4] = E. coli NCM3722 delta-lon, growth: N-lim chemostat, doubling time 6 h
[5] = E. coli NCM3722 delta-smpB, growth: N-lim chemostat, doubling time 6 h
[6] = wild type E. coli NCM3722, growth: C-lim chemostat, doubling time 3 h
[7] = wild type E. coli NCM3722, growth: C-lim chemostat, doubling time 6 h
[8] = wild type E. coli NCM3722, growth: C-lim chemostat, doubling time 12 h
[9] = wild type E. coli NCM3722, growth: N-lim chemostat, doubling time 6 h
[10] = wild type E. coli NCM3722, growth: N-lim chemostat, doubling time 12 h
[11] = wild type E. coli NCM3722, growth: P-lim chemostat, doubling time 6 h
[12] = wild type E. coli NCM3722, growth: P-lim chemostat, doubling time 12 h

| Sequence | total protein half-life in vivo [1] [h] | total protein half-life in vivo [2] [h] | total protein half-life in vivo [3] [h] | total protein half-life in vivo [4] [h] | total protein half-life in vivo [5] [h] | total protein half-life in vivo [6] [h] | total protein half-life in vivo [7] [h] | total protein half-life in vivo [8] [h] | total protein half-life in vivo [9] [h] | total protein half-life in vivo [10] [h] | total protein half-life in vivo [11] [h] | total protein half-life in vivo [12] [h] |
| --- | --- | --- | --- | --- | --- | --- | --- | --- | --- | --- | --- | --- |
| MFGYRSNVPKVRLTTDRLVVRLVHDRDAWRLADYYAENRHFLKPWEPVRDESHCYPSGWQARLGMINEFHKQGSAFYFGLFDPDEKEIIGVANFSNVVRGSFHACYLGYSIGQKWQGKGLMFEALTAAIRYMQRTQHIHRIMANYMPHNKRSGDLLARLGFEKEGYAKDYLLIDGQWRDHVLTALTTPDWTPGR [P0A948] | 4.56 ± 0.93 | 3.52 ± 0.15 | 3.89 ± 0.49 | 4.189 ± 0.017 | 4.098 ± 0.021 | 3.07 ± 0.059 | 5.02 ± 0.078 | 8.98 ± 0.43 | 3.57 ± 0.065 | 5.92 ± 0.15 | 5.38 ± 0.41 |  |
| MAEKKQWHETLHDQFGQYFAVDNVLYHEKTDHQDLIIFENAAFGRVMALDGVVQTTERDEFIYHEMMTHVPLLAHGHAKHVLIIGGGDGAMLREVTRHKNVESITMVEIDAGVVSFCRQYLPNHNAGSYDDPRFKLVIDDGVNFVNQTSQTFDVIISDCTDPIGPGESLFTSAFYEGCKRCLNPGGIFVAQNGVCFLQQEEAIDSHRKLSHYFSDVGFYQAAIPTYYGGIMTFAWATDNDALRHLSTEIIQARFLASGLKCRYYNPAIHTAAFALPQYLQDALASQPS |  | 4.62 ± 0.2 | 4.51 ± 0.12 | 4.89 ± 0.27 | 4.49 ± 0.41 |  | 7.06 ± 0.82 | 9.58 ± 0.14 | 4.21 ± 0.35 | 7.27 ± 0.36 | 5.86 ± 0.46 | 13 ± 2.3 |
| MKQLTILGSTGSIGCSTLDVVRHNPEHFRVVALVAGKNVTRMVEQCLEFSPRYAVMDDEASAKLLKTMLQQQGSRTEVLSGQQAACDMAALEDVDQVMAAIVGAAGLLPTLAAIRAGKTILLANKESLVTCGRLFMDAVKQSKAQLLPVDSEHNAIFQSLPQPIQHNLGYADLEQNGVVSILLTGSGGPFRETPLRDLATMTPDQACRHPNWSMGRKISVDSATMMNKGLEYIEARWLFNASASQMEVLIHPQSVIHSMVRYQDGSVLAQLGEPDMRTPIAHTMAWPNRVNSGVKPLDFCKLSALTFAAPDYDRYPCLKLAMEAFEQGQAATTALNAANEITVAAFLAQQIRFTDIAALNLSVLEKMDMREPQCVDDVLSVDANAREVARKEVMRLAS | 4.22 ± 0.36 | 3.69 ± 0.044 | 4.05 ± 0.23 | 3.93 ± 0.36 | 3.84 ± 0.34 | 2.81 ± 0.21 | 5.32 ± 0.24 | 9.19 ± 0.66 | 3.64 ± 0.13 | 5.81 ± 0.34 | 5.88 ± 0.068 | 9.74 ± 0.61 |
| MDSARALIARGWGVSLVSRCLRVSRAQLHVILRRTDDWMDGRRSRHTDDTDVLLRIHHVIGELPTYGYRRVWALLRRQAELDGMPAINAKRVYRIMRQNALLLERKPAVPPSKRAHTGRVAVKESNQRWCSDGFEFCCDNGERLRVTFALDCCDREALHWAVTTGGFNSETVQDVMLGAVERRFGNDLPSSPVEWLTDNGSCYRANETRQFARMLGLEPKNTAVRSPESNGIAESFVKTIKRDYISIMPKPDGLTAAKNLAEAFEHYNEWHPHSALGYRSPREYLRQRACNGLSDNRCLEI [P0CF53] | 5.39 ± 1.7 |  |  |  |  |  |  |  |  |  |  |  |
| MADRNLRDLLAPWVPDAPSRALREMTLDSRVAAAGDLFVAVVGHQADGRRYIPQAIAQGVAAIIAEAKDEATDGEIREMHGVPVIYLSQLNERLSALAGRFYHEPSDNLRLVGVTGTNGKTTTTQLLAQWSQLLGEISAVMGTVGNGLLGKVIPTENTTGSAVDVQHELAGLVDQGATFCAMEVSSHGLVQHRVAALKFAASVFTNLSRDHLDYHGDMEHYEAAKWLLYSEHHCGQAIINADDEVGRRWLAKLPDAVAVSMEDHINPNCHGRWLKATEVNYHDSGATIRFSSSWGDGEIESHLMGAFNVSNLLLALATLLALGYPLADLLKTAARLQPVCGRMEVFTAPGKPTVVVDYAHTPDALEKALQAARLHCAGKLWCVFGCGGDRDKGKRPLMGAIAEEFADVAVVTDDNPRTEEPRAIINDILAGMLDAGHAKVMEGRAEAVTCAVMQAKENDVVLVAGKGHEDYQIVGNQRLDYSDRVTVARLLGVIA | 5.09 ± 0.76 | 3.51 ± 0.15 | 3.43 ± 0.23 | 4.497 ± 0.044 | 3.39 ± 0.23 | 2.65 ± 0.31 | 5.8 ± 0.085 | 9.05 ± 0.4 | 3.71 ± 0.04 | 6.39 ± 0.93 | 5.18 ± 0.14 | 8.724 ± 0.074 |
| MKIATIKTGLASLAMLPGLVMAAPAVADKADNAFMMICTALVLFMTIPGIALFYGGLIRGKNVLSMLTQVTVTFALVCILWVVYGYSLAFGEGNNFFGNINWLMLKNIELTAVMGSIYQYIHVAFQGSFACITVGLIVGALAERIRFSAVLIFVVVWLTLSYIPIAHMVWGGGLLASHGALDFAGGTVVHINAAIAGLVGAYLIGKRVGFGKEAFKPHNLPMVFTGTAILYIGWFGFNAGSAGTANEIAALAFVNTVVATAAAILGWIFGEWALRGKPSLLGACSGAIAGLVGVTPACGYIGVGGALIIGVVAGLAGLWGVTMLKRLLRVDDPCDVFGVHGVCGIVGCIMTGIFAASSLGGVGFAEGVTMGHQLLVQLESIAITIVWSGVVAFIGYKLADLTVGLRVPEEQEREGLDVNSHGENAYNA | 5.75 ± 1.4 | 4.24 ± 0.22 | 5.51 ± 1.2 | 5.81 ± 2 | 4.6 ± 0.47 |  |  |  | 4.78 ± 0.62 | 8.59 ± 0.8 |  |  |
| MRADKSLSPFEIRVYRHYRIVHGTRVALAFLLTFLIIRLFTIPESTWPLVTMVVIMGPISFWGNVVPRAFERIGGTVLGSILGLIALQLELISLPLMLVWCAAAMFLCGWLALGKKPYQGLLIGVTLAIVVGSPTGEIDTALWRSGDVILGSLLAMLFTGIWPQRAFIHWRIQLAKSLTEYNRVYQSAFSPNLLERPRLESHLQKLLTDAVKMRGLIAPASKETRIPKSIYEGIQTINRNLVCMLELQINAYWATRPSHFVLLNAQKLRDTQHMMQQILLSLVHALYEGNPQPVFANTEKLNDAVEELRQLLNNHHDLKVVETPIYGYVWLNMETAHQLELLSNLICRALRK | 6.005 ± 0.0077 |  | 5.415 ± 0.036 | 6.43 ± 0.51 | 5.53 ± 1.8 | 3.27 ± 0.35 | 5.4 ± 0.19 | 11.5 ± 0.28 | 5.61 ± 0.075 | 7.75 ± 6 | 4.76 ± 2.1 | 10.6 ± 3.9 |
